Test results reported in PMC5859253.

Assays:
Assay in all cases: EMSA
Details in all cases: HilD/H-NS EMSA: 10 mM Tris-HCl pH 8, 50 mM KCl, 1 mM DTT, 0.5 mM EDTA, 5% glycerol, 10 ug/ml BSA, ~100 ng DNA, RT 20 min; PhoP EMSA: 20 mM Tris-HCl pH 7.4 …
[1] = tested on: PhoP-H6 (phosphorylated)
[2] = tested on: MBP-HilD (Salmonella enterica serovar Typhimurium SL1344?)
[3] = tested on: H-NS-FH (H-NS-3XFLAG-6XHis) (Escherichia coli EPEC E2348/69)

In the case of orgB promoter, the binding [1] is reported as 3 µM.
For grhD1 promoter (PhoP EMSA), the binding [1] was 3 µM.
In the case of grhD1 upstream region (HilD/H-NS EMSA), the binding [2] is reported as > 1 µM and the binding [3] is reported as 0.5 µM.
ssrAB regulatory region gave a binding [3] of 0.25 µM.
For sigD regulatory region, the binding [2] was > 1 µM and the binding [3] was > 1 µM.
In the case of ges promoter, the binding [1] is reported as > 6 µM.
